Assay results as given in patent publication US20210317231A1 (BYONDIS B V, published 2021).

T1: human 5T4 oncofoetal antigen (human, UniProt Q13641 32-420)
T1 construct: whole, on cells; also called hu 5T4; human 5T4 antigen
T1 sequence (looked up): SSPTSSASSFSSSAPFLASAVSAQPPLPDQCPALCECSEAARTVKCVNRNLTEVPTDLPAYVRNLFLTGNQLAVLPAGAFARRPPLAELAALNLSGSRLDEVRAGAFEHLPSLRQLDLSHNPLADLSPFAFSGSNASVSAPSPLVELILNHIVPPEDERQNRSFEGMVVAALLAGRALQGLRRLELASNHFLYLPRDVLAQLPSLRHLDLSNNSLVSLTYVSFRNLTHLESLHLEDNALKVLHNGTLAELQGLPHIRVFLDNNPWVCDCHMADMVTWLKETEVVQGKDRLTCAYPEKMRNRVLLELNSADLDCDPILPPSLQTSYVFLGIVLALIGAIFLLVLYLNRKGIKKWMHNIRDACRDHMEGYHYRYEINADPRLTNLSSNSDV

T2: cynomolgus monkey 5T4 antigen (cynomolgus monkey, UniProt Q4R8Y9 35-420)
T2 construct: whole, on cells; also called cyno 5T4
T2 sequence (looked up): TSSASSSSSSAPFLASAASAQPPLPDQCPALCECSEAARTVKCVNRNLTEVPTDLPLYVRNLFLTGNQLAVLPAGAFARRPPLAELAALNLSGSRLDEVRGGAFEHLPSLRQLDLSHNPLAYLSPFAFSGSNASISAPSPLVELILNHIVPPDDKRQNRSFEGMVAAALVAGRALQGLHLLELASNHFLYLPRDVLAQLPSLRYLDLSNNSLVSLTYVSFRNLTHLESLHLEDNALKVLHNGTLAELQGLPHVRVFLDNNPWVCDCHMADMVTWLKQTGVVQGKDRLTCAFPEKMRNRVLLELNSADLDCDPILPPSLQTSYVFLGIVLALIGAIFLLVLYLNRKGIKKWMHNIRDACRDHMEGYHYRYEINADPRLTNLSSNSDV


Key:
[1] = biological target: T1, human 5T4 oncofoetal antigen; assay: flow cytometry, CHOZN cells expressing hu 5T4
[2] = biological target: T2, cynomolgus monkey 5T4 antigen; assay: flow cytometry, CHOZN cells expressing cyno 5T4

Row | EC50 [1] [µg/mL] | EC50 [2] [µg/mL] | Binder
1 | 0.15 | 0.53 | humanized anti-5T4 antibody 825a with HC-41C mutation (antibody, human IgG1, kappa, V domains shown) VH: EVQLVESGGDLAQPGGSLRLSCAVSGIDLSSYGMGWVRQACGKGLEWVSIISRNSVTYYATWAKGRFTISRDNSKNTVYLQMTSLRAEDTALYFCARRATYSGALGYFDIWGQGTLVTVSS VL: EIVMTQSPSSLSASVGDRVTITCQASENIYSTLAWYQQKPGKAPKLLIYDAFDLASGVPSRFSGSGSGTDYTLTISSLQPEDFATYYCQQGYSGTNVDNAFGQGTKLEIKR
2 | 0.21 | 0.42 | humanized anti-5T4 antibody 825c with HC-41C mutation (antibody, human IgG1, kappa, V domains shown) VH: EVQLEESGGGLVKPGGSLRLSCAASGIDLSSYGMGWVRQACGKGLEWVSIISRNSVTYYATWAKGRFTISRDNSKNTLYLQMNSLRAEDTAVYYCARRATYSGALGYFDIWGRGTLVTVSS VL: GYDMTQSPSSVSASVGDRVTITCQASENIYSTLAWYQQKPGKAPKLLIYDAFDLASGVPSRFKGSGSGTEYTLTISSLQPEDFATYYCQQGYSGTNVDNAFGGGTKVEIKR
